Consider two molecules from article PMC8251345, “Entropic pressure controls the oligomerization of the Vibrio cholerae ParD2 antitoxin” (Acta Crystallographica. Section D, Structural Biology, 2021).

Values joined by “and” are separate entries in the source; they are usually repeats but may differ in a detail not shown here. Equal entries are not always repeated. Where two headings read alike, the source gives them in different places.

For data set [1], the target named is N-terminal domain of Vibrio cholerae ParD2 as crystallised (V. cholerae). In words: crystal structure.
For data set [2] the target is unchanged. Kind of data set: crystal structure. This is another data set of the same source.
Data set [3] deals with the molecule itself. In words: […]; pH 8.0 and pH 5.6, […].
The data set “native MS” concerns the molecule itself. In words: native MS.
The data set “SAXS (SEC-SAXS)” concerns the molecule itself. Kind of data set: SAXS (SEC-SAXS).

Regarding “N-terminal domain of Vibrio cholerae ParD2 as crystallised (domain or fragment)”, the figures for the stoichiometry N in data set [1] and in data set [2] were 16 and 2, respectively.

B1: Vibrio cholerae ParD2 antitoxin (natural protein)
chain: MAKNTSITLGEHFDGFITSQIQSGRYGSASEVIRSALRLLENQETKLQSLRQLLIEGEQSGDADYDLDSFINELDSENIR
notes: also called VcParD2
For the molecule B1, the “stoichiometry N” value in data set [3] is 10 and 8; in “native MS”, 2 and 4; in the data set “SAXS (SEC-SAXS)”, 12.

In general, stoichiometry N refers to a count of units in the complex or per binding partner.
